{"source": "paper PMC13046434", "about": "(European journal of pharmacology, 2025)", "key": {"[1]": {"target": "T1, E223A hNET (Homo sapiens, UniProt P23975, E223A)", "T1 sequence (P23975 whole entry E223A)": "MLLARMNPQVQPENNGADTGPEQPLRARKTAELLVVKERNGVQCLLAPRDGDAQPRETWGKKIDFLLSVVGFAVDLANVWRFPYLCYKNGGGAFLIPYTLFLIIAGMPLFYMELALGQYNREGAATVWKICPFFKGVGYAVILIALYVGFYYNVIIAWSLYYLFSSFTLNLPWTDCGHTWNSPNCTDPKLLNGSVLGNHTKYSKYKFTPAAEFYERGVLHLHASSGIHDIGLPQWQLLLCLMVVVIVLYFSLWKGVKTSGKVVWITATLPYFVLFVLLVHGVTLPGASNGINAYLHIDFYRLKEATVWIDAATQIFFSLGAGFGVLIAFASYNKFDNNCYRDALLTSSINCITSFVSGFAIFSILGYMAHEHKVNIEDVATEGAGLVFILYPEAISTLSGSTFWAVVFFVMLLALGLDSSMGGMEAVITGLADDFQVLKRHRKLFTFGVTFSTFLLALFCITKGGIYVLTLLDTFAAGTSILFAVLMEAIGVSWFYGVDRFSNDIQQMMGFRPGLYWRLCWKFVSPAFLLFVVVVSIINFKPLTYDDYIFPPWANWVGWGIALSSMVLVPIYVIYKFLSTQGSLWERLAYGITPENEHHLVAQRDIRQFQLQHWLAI", "test": "kinetic analysis of [3H]DA uptake, E223A hNET", "type": "cell-based", "set-up": "expressed in transfected cells; host or cells: CHO cells, transient transfection with Lipofectamine 2000", "experimental": "(§1) The kinetic parameters of [^3H]DA uptake, maximal velocity (Vmax) and Michalis-Menton constant (Km), were determined in CHO cells transiently transfected with WT hNET and its mutants seeded in 24 well plates as described above. […] After the 10-min incubation period, cells were incubated for 8 min at room temperature with a series of one of six concentrations of mixed [^3H]DA (0.001–1.0 μM, final concentration). The reaction was terminated by the removal of solution from the wells followed by three rapid washes of ice-cold 1 x KRH. Cells were lysed with 500 μL of 1 % SDS for 1 h and radioactivity measured as described above. Specific hNET-mediated DA uptake was calculated by subtracting the nonspecific uptake (in the presence of desipramine and nomifensine) from the total uptake.\n(§2) Results are presented as mean ± SEM. The number of n represents the number of independent experiments from each experiment group. Kinetic parameters (Vmax and Km) were determined from saturation curves by nonlinear regression analysis using a one-site model with variable slope. IC50 values for the substrate and inhibitors for [^3H]DA uptake were determined from nonlinear regression analysis inhibition curves using a one-site model with variable slope. GraphPad Prism (version 10.1.2.) was used to calculate the kinetic parameters and IC50 values for substrate and inhibitors inhibiting [^3H]DA uptake or [^3H] WIN35428. For any experiment involving comparisons between unpaired samples, unpaired Student’s t tests were used to determine any difference between parameters between WT hNET and its mutants. Log-transformed IC50 values were used for statistical comparisons. One-way ANOVA comparisons with repeat measurements were used for analyzing the [^3H]DA and [^3H]MPP^+ efflux data. Significant differences between samples were analyzed with independent ANOVAs followed by post-hoc tests, which is indicated in the Results Section of the efflux experiments. All statistical analyses were performed using the IBM SPSS Statistics version 29 and returned values of at least p < 0.05 were considered significant."}, "[2]": {"target": "T2, N198A hNET (Homo sapiens, UniProt P23975, N198A)", "T2 sequence (P23975 whole entry N198A)": "as the sequence (P23975 whole entry E223A) above, with N198A, A223E counted along it", "test": "kinetic analysis of [3H]DA uptake, N198A hNET", "type": "cell-based", "set-up": "expressed in transfected cells; host or cells: CHO cells, transient transfection with Lipofectamine 2000", "experimental": "as §1, §2"}, "[3]": {"target": "T3, WT hNET (Homo sapiens, UniProt P23975)", "T3 sequence (P23975 whole entry)": "as the sequence (P23975 whole entry E223A) above, with A223E counted along it", "test": "kinetic analysis of [3H]DA uptake, WT hNET", "type": "cell-based", "set-up": "expressed in transfected cells; host or cells: CHO cells, transient transfection with Lipofectamine 2000", "experimental": "as §1\nResults are presented as mean ± SEM. […] Kinetic parameters (Vmax and Km) were determined from saturation curves by nonlinear regression analysis using a one-site model with variable slope. IC50 values for the substrate and inhibitors for [^3H]DA uptake were determined from nonlinear regression analysis inhibition curves using a one-site model with variable slope. […] Significant differences between samples were analyzed with independent ANOVAs followed by post-hoc tests, which is indicated in the Results Section of the efflux experiments. […]"}, "[4]": {"target": "T1, E223A hNET"}, "[5]": {"target": "T3, WT hNET"}, "[6]": {"target": "T3, WT hNET", "test": "Ki of rTat1-86 inhibiting [3H]DA uptake in WT hNET cell suspensions", "type": "cell-based", "set-up": "expressed in transfected cells; host or cells: CHO cells, transient transfection with Lipofectamine 2000", "experimental": "To determine the inhibitor constant (Ki) of rTat1-86 inhibiting DA uptake in WT hNET, cells in 10 cm plates were cultured and transfected with WT hNET as described above. All reagents were made in 1 x KRH containing 0.1 % Protease Inhibitor Cocktail 1 (P2850, Sigma-Aldrich) and 0.1 % Protease Inhibitor Cocktail (P8340, Sigma-Aldrich). Cells were detached and harvested as described above. The cell suspensions were then incubated with a range of rTat1-86 (0.25–140 nM, final concentrations) for 20 min at room temperature. […] The reaction was then terminated as described above."}, "[7]": {"target": "T2, N198A hNET"}, "[8]": {"target": "T3, WT hNET", "type": "binding", "set-up": "expressed in transfected cells; host or cells: CHO cells, transient transfection with Lipofectamine 2000"}, "[9]": {"target": "T2, N198A hNET", "type": "binding", "set-up": "expressed in transfected cells; host or cells: CHO cells, transient transfection with Lipofectamine 2000"}, "[10]": {"target": "T1, E223A hNET", "type": "binding", "set-up": "expressed in transfected cells; host or cells: CHO cells, transient transfection with Lipofectamine 2000"}, "[11]": {"target": "T1, E223A hNET", "test": "basal [3H]DA and [3H]MPP+ efflux, E223A hNET", "type": "cell-based", "set-up": "expressed in transfected cells; host or cells: CHO cells, transient transfection with Lipofectamine 2000", "settings": "across 90 min, preloaded 50 nM, 20 min", "experimental": "(§3) To determine whether N198A or E223A hNET alters transporter conformational transients, [^3H]DA or [^3H]MPP^+ efflux was performed based on our previous studies ([Midde et al., 2015]; [Quizon et al., 2021]). Intact CHO cells in precoated 24-well plates transfected with WT hNET or its mutants were preloaded with [^3H]DA (50 nM final concentration) for 20 min or [^3H]MPP^+ (5 nM final concentration) for 30 min at room temperature. After the preloading period, cells were washed twice with 1 x KRH buffer before collecting fractional release samples. Total uptake of [^3H]DA or [^3H]MPP^+ at the zero time point was estimated from four wells per genotype that were lysed immediately with 1 % SDS after preloading period. Nonspecific uptake of [^3H]DA or [^3H]MPP^+ at zero time point was estimated from four wells per genotype that were incubated with the hNET inhibitors desipramine and nomifensine (100 μM and 10 μM final concentration, respectively) and lysed immediately with 1 % SDS after the preloading period. To collect fractional release, 500 μL of KRH buffer was added into a set of four wells and transferred to scintillation vials after 0 min as the initial fractional efflux. Fresh 500 μL of 1 x KRH buffer was added into the wells and incubated for 10 min then transferred to scintillation vials. Fractional efflux was collected every 10 min for 90 min ([^3H]DA) or 110 min ([^3H]MPP^+). […]"}, "[12]": {"target": "T2, N198A hNET", "test": "basal [3H]DA and [3H]MPP+ efflux, N198A hNET", "type": "cell-based", "set-up": "expressed in transfected cells; host or cells: CHO cells, transient transfection with Lipofectamine 2000", "settings": "across 90 min, preloaded 50 nM, 20 min", "experimental": "as §3"}, "[13]": {"settings": "per 10^6 cells, DA 0.001-1.0 μM"}}, "note": "Like-named read-outs stand apart in the source and are kept apart here."}
{"molecule": "NCCc1ccc(O)c(O)c1", "note": "[[^3H]DA, 3,4-ethyl-2[N-P^3PH]dihydroxyphenylethylamine]", "values": [{"measurement": "Km", "setting": "[1]", "result": "0.066 ± 0.011", "unit": "µM"}, {"measurement": "Km", "setting": "[2]", "result": "0.084 ± 0.02", "unit": "µM"}, {"measurement": "Km", "setting": "[3]", "result": "0.057 ± 0.008", "unit": "µM"}]}
{"molecule": "rTat1-86: recombinant HIV-1 transactivator of transcription (rTat1-86), purchased from ImmunoDX", "values": [{"measurement": "Tat-induced reduction of [3H]DA uptake compared to its control", "setting": "[4]; 8.75 nM rTat1-86", "result": "attenuated"}, {"measurement": "specific [3H]DA uptake with Tat, direct counts", "setting": "[4]; 8.75 nM rTat1-86 (without Tat: 2113 ± 237)", "result": "1950 ± 215", "unit": "DPM"}, {"measurement": "reduction of specific [3H]DA uptake relative to control", "setting": "[4]; 140 nM rTat1-86", "result": 26.98, "unit": "%"}, {"measurement": "specific [3H]DA uptake with Tat, direct counts", "setting": "[4]; 140 nM rTat1-86 (without Tat: 1711 ± 261)", "result": "1206 ± 239", "unit": "DPM"}, {"measurement": "reduction of specific [3H]DA uptake relative to control", "setting": "[5]; 8.75 nM rTat1-86", "result": 24.2, "unit": "%"}, {"measurement": "specific [3H]DA uptake with Tat, direct counts", "setting": "[5]; 8.75 nM rTat1-86 (without Tat: 2778 ± 240)", "result": "2106 ± 191", "unit": "DPM"}, {"measurement": "reduction of specific [3H]DA uptake relative to control", "setting": "[5]; 140 nM rTat1-86", "result": 34.22, "unit": "%"}, {"measurement": "specific [3H]DA uptake with Tat, direct counts", "setting": "[5]; 140 nM rTat1-86 (without Tat: 1870 ± 238)", "result": "1230 ± 163", "unit": "DPM"}, {"measurement": "reduction of specific [3H]DA uptake relative to control", "setting": "[5]; 140 nM rTat1-86, listed as recombinant Tat1-86", "result": 34, "unit": "%"}, {"measurement": "predicted occupancy of hNET molecules", "setting": "[6]; 8.75 nM rTat1-86, approximately 2.6-fold the Ki", "result": "~ 72%"}, {"measurement": "predicted occupancy of hNET molecules", "setting": "[6]; 140 nM rTat1-86, approximately 41.2-fold the Ki", "result": "~ 98%"}, {"measurement": "plateau of Tat's inhibitory effect on DA uptake", "setting": "[6]; WT hNET, Tat concentrations from 8.75 nM to 140 nM", "result": 65.2, "unit": "%"}, {"measurement": "Ki", "setting": "[6]; WT hNET, rTat1-86 0.25-140 nM, 20 min, 50 nM [3H]DA, read-out: Ki for inhibiting hNET-mediated DA uptake", "result": 3.4, "unit": "nM"}, {"measurement": "Tat-induced reduction of [3H]DA uptake compared to its control", "setting": "[7]; 8.75 nM rTat1-86", "result": "attenuated"}, {"measurement": "specific [3H]DA uptake with Tat, direct counts", "setting": "[7]; 8.75 nM rTat1-86 (without Tat: 1934 ± 210)", "result": "1883 ± 175", "unit": "DPM"}, {"measurement": "Tat-induced reduction of [3H]DA uptake compared to its control", "setting": "[7]; 140 nM rTat1-86", "result": "attenuated"}, {"measurement": "specific [3H]DA uptake with Tat, direct counts", "setting": "[7]; 140 nM rTat1-86 (without Tat: 912 ± 212)", "result": "954 ± 213", "unit": "DPM"}]}
{"molecule": "COC(=O)[C@H]1[C@@H](c2ccc(F)cc2)C[C@@H]2CC[C@H]1N2C", "note": "[[^3H]WIN35428]", "values": [{"measurement": "specific [3H]WIN35428 binding", "setting": "[8]", "result": "14083 ± 1198", "unit": "DPM"}, {"measurement": "specific [3H]WIN35428 binding normalized as a percentage of WT hNET", "setting": "[8]", "result": "100 ± 8.5", "unit": "%"}, {"measurement": "specific [3H]WIN35428 binding", "setting": "[9]", "result": "11361 ± 652", "unit": "DPM"}, {"measurement": "specific [3H]WIN35428 binding normalized as a percentage of WT hNET", "setting": "[9]", "result": "80.67 ± 4.6", "unit": "%"}, {"measurement": "specific [3H]WIN35428 binding", "setting": "[10]", "result": "11806 ± 567", "unit": "DPM"}, {"measurement": "specific [3H]WIN35428 binding normalized as a percentage of WT hNET", "setting": "[10]", "result": "83.83 ± 4.0"}]}
{"molecule": "[3H]c1c([3H])c(CCN)c([3H])c(O)c1O", "note": "[[^3H]DA, 3,4-ethyl-2[N-P^3PH]dihydroxyphenylethylamine]", "values": [{"measurement": "reduction in Vmax of [3H]DA uptake compared to WT hNET", "setting": "[1]", "result": 71.2, "unit": "%"}, {"measurement": "Vmax of [3H]DA uptake", "setting": "[1]; [13]", "result": "151.1 ± 14.5", "unit": "fmol/min/10^6"}, {"measurement": "overall [3H]DA efflux compared to WT hNET", "setting": "[11]", "result": "significantly reduced"}, {"measurement": "reduction in Vmax of [3H]DA uptake compared to WT hNET", "setting": "[2]", "result": 82.6, "unit": "%"}, {"measurement": "Vmax of [3H]DA uptake", "setting": "[2]; [13]", "result": "91.4 ± 16.4", "unit": "fmol/min/10^6"}, {"measurement": "Vmax of [3H]DA uptake", "setting": "[3]; [13]", "result": "525.4 ± 89.8", "unit": "fmol/min/10^6"}, {"measurement": "overall [3H]DA efflux compared to WT hNET", "setting": "[12]", "result": "significantly reduced"}]}
